Laboratory results from paper PMC11329700, “Dynamin 1xA interacts with Endophilin A1 via its spliced long C-terminus for ultrafast endocytosis” (The EMBO Journal, 2024).

B4: His-tagged mouse Endophilin A1 SH3 domain (domain or fragment)
chain: not shown
notes: Endophilin A1, mouse, SH3 domain; The methods describe only a GST-Endophilin A1-SH3 construct (mouse, amino acids 292-352); the His-tagged construct of the ELISA is not described; also called His-tagged mouse Endophilin-SH3 domain

Key:
[1] = target: T1, Dyn1xA-PRR 746-864 (GST tag removed) (rat, UniProt P21575 746-864); assay: SEC-MALS; Superdex 75 10/300 GL, 20 mM HEPES, 100 mM NaCl, 1 mM DTT, 1 mM PMSF, pH 7.2; complex at 0.5 mg and diluted to one third (0.167 mg); settings: both partners purified
T1 construct: For SEC-MALS the removal is surmised from the predicted 19.4 kDa of the 1:1 complex; source: E. coli, 15N- or 15N,13C-labelled for NMR, GST cleaved, purified by gel filtration
T1 sequence (looked up): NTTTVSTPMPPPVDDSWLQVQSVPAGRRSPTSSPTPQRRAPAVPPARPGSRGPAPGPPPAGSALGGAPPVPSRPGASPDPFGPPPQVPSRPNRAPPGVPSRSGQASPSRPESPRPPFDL

GST-dyn1xA-PRR R838A = target: T2, GST-dyn1xA-PRR R838A (rat, UniProt P21575 746-864, R838A); assay: pull-down; GST fusion proteins on GSH-sepharose beads incubated with pre-cleared rat brain synaptosomal lysate (20 mM Tris pH 7.4, 150 mM NaCl, 1% Triton X-100, 1 mM EDTA, 1 mM EGTA) at 4 °C for 1 h; bound proteins by Coomassie stain or Western blot (some blots quantified by densitometry); settings: one partner purified
T2 construct: also called R838A (Dyn1xA-PRR); source: E. coli JM109; GST fusion on GSH-sepharose beads
T2 sequence (looked up): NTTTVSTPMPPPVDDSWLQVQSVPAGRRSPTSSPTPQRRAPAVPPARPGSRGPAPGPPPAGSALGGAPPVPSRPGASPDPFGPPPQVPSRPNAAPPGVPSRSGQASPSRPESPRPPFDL

[2] = target: B4; assay: ELISA; His-tagged mouse Endophilin A1 SH3 domain coated onto a 96-well plate, overlaid with increasing concentrations of GST-tagged Dyn1-PRR peptides; two experiments with four replicates each; settings: both partners purified
[3] = target: T3, GST-Dyn1xA-PRR (dynamin 1xA proline-rich region, amino acids 746-864) (rat, UniProt P21575 746-864); assay: as above; settings: both partners purified
T3 construct: also called full-length Dyn1xA-PRR; source: E. coli JM109; GST fusion on GSH-sepharose beads (pull-down), GST-tagged in solution (ELISA)
T3 sequence (looked up): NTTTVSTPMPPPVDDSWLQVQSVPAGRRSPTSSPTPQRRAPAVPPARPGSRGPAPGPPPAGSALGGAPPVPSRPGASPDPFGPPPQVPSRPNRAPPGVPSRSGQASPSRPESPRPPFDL

B1: Endophilin A1 SH3 domain (GST tag removed) (domain or fragment)
chain: not shown
notes: Endophilin A1, mouse, SH3 domain, amino acids 292-352 (methods); the results print residues D291-H352; Cleavage is stated for the NMR experiments; for SEC-MALS it is surmised from the predicted 19.4 kDa of the 1:1 complex; also called endophilin SH3; Endophilin A SH3; source: E. coli JM109, GST fusion, GST cleaved, purified by gel filtration
[1]
  stoichiometry N: 1

B2: Endophilin A1 (natural protein, UniProt O35179 1-352, looked up)
chain: MSVAGLKKQFHKATQKVSEKVGGAEGTKLDDDFKEMERKVDVTSRAVMEIMTKTIEYLQPNPASRAKLSMINTMSKIRGQEKGPGYPQAEALLAEAMLKFGRELGDDCNFGPALGEVGEAMRELSEVKDSLDMEVKQNFIDPLQNLHDKDLREIQHHLKKLEGRRLDFDYKKKRQGKIPDEELRQALEKFDESKEIAESSMFNLLEMDIEQVSQLSALVQAQLEYHKQAVQILQQVTVRLEERIRQASSQPRREYQPKPRMSLEFATGDGTQPNGGLSHTGTPKPAGVQMDQPCCRALYDFEPENEGELGFKEGDIITLTNQIDENWYEGMLHGQSGFFPINYVEILVALPH
notes: Endophilin-A1, rat, endogenous full-length protein of nerve terminals; The Western blots are probed with antibodies to Endophilin A; also called 40 kDa protein; source: endogenous, rat brain synaptosomal lysate
GST-dyn1xA-PRR R838A
  binding relative to wild-type Dyn1xA-PRR (median): 68.2%

B3: GST-Dyn1xA-PRR 806-864 (domain or fragment, rat, UniProt P21575 806-864, looked up)
chain: GSALGGAPPVPSRPGASPDPFGPPPQVPSRPNRAPPGVPSRSGQASPSRPESPRPPFDL
notes: source: E. coli JM109; GST fusion on GSH-sepharose beads (pull-down), GST-tagged in solution (ELISA)
[2]
  fold difference in affinity from xA 746-864: < 2 fold
  fold higher affinity than xA 751-798: 5 fold

## B4
[3]
  Kd: 44 nM

B5: Amphiphysin 1 (natural protein, UniProt O08838 1-683, looked up)
chain: MADIKTGIFAKNVQKRLNRAQEKVLQKLGKADETKDEQFEEYVQNFKRQEAEGTRLQRELRGYLAAIKGMQEASMKLTESLHEVYEPDWYGREDVKMVGEKCDVLWEDFHQKLVDGSLLTLDTYLGQFPDIKNRIAKRSRKLVDYDSARHHLEALQSSKRKDESRISKAEEEFQKAQKVFEEFNVDLQEELPSLWSRRVGFYVNTFKNVSSLEAKFHKEIAVLCHKLYEVMTKLGDQHADKAFSIQGAPSDSGPLRIAKTPSPPEEASPLPSPTASPNHTLAPASPAPVRPRSPSQTRKGPPVPPLPKVTPTKELQQENIINFFEDNFVPEINVTTPSQNEVLEVKKEETLLDLDFDPFKPDVTPAGSAAATHSPMSQTLPWDLWTTSTDLVQPASGGSFNDFTQPQDTSLFTMQTDQNMAETEQALPTEPQAEEPPTTAAAPTAGLDLGLEMEEPKEEAAIPPGTDAGETVGTEGSTGEEAEAEKAALPAGEGESPEGAKIDVESTELASSESPQAAELEAGAPQEKVIPSVVIEPASNHEGEEHQETTTGTETREATEDVAPQGPAGEKQELATEPTPLDSQAATPAPAGAVDASLSAGDAAQELPPGFLYKVETLHDFEAANSDELTLQRGDVVLVVPSDSEADQDAGWLVGVKESDWLQYRDLATYKGLFPENFTRHLE
notes: Amphiphysin 1, rat, endogenous in synaptosomes, detected by Western blot; also called Amphiphysin I; source: endogenous, rat brain synaptosomal lysate
GST-dyn1xA-PRR R838A
  binding relative to wild-type Dyn1xA-PRR (median): 14.2%
